Measurements reported in paper PMC11160731.

Tests used:
VapB27;VapC27 = VapB27;VapC27 (Mycobacterium tuberculosis …, UniProt O07779;P9WF83 1-78;1-137, |); assay: EMSA
VapB46;VapC46 = VapB46;VapC46 (Mycobacterium tuberculosis …, UniProt P9WF13;O50411 1-102;1-130, |); assay: EMSA
VapB46;VapC46, sequence (P9WF13 whole entry, chain 1 of 2): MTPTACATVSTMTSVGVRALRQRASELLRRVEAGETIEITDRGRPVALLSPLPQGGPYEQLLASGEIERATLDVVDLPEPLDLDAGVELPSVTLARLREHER
VapB46;VapC46, sequence (O50411 whole entry, chain 2 of 2): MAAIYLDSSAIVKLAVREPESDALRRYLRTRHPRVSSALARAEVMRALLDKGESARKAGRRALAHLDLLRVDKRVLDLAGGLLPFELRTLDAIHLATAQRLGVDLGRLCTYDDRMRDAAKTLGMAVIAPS

VapB27;VapC27, sequence (O07779 whole entry, chain 1 of 2): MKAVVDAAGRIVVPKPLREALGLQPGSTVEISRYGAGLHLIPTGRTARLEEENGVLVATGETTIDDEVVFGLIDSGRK
VapB27;VapC27, sequence (P9WF83 whole entry, chain 2 of 2): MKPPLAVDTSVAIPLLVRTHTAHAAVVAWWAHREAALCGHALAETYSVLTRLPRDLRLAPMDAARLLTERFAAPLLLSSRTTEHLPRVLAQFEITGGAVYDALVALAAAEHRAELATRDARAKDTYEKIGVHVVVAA

| Binder | binding result (VapB27;VapC27) | binding result (VapB46;VapC46) |
| --- | --- | --- |
| vapB27 promoter oligo (dsDNA) DNA 1: CGGTGAGTCGACTTCCGCACCTGAGTGGGAAGCCATTGGTATCGTATTCCCATGA DNA 2: TCATGGGAATACGATACCAATGGCTTCCCACTCAGGTGCGGAAGTCGACTCACCG | binds | – |
| vapB46 promoter oligo (dsDNA) DNA 1: TCCTCCCAGCTCAGCGCCAACCAACCGAGGAACAACGCGCCGACTTTTTCAG DNA 2: CTGAAAAAGTCGGCGCGTTGTTCCTCGGTTGGTTGGCGCTGAGCTGGGAGGA | – | binds |
